Variants at the floor of the assay were thinned out.
Experiments:
biotinyl-Met-oxazolone = assay: self-aminoacylation, catalytic enhancement (BMO) (fold over background); higher = more active; k-Seq, kA / k0A0; sequences stand for … in GGGAAUGGAUCCACAUCUACGAAUUC…UUCACUGCAGACUUGACGAAGCUG
Summary of the method: (§1)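 Mutagenized RNA pools with a 21-nt variable region (0.43 μM) were reacted with each biotinyl-aminoacyl-oxazolone at 2–1250 μM for 90 minutes at room temperature, in 50 μL HEPES/NaCl/KCl/MgCl2/CaCl2 buffer containing 5% acetonitrile at pH 6.9–7.0. RNA captured on streptavidin was quantified by triplicate qPCR and by Illumina sequencing. The fraction reacted for each sequence was fit to a pseudo-first-order model with bootstrapping, and catalytic enhancement is the median kA divided by the uncatalyzed rate, taken as the low-activity peak of a bimodal Gaussian fit.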

biotinyl-Trp-oxazolone = assay: self-aminoacylation, catalytic enhancement (BWO) (fold over background); higher = more active; k-Seq, kA / k0A0; sequences stand for … in GGGAAUGGAUCCACAUCUACGAAUUC…UUCACUGCAGACUUGACGAAGCUG
Summary of the method: as §1

biotinyl-Phe-oxazolone = assay: self-aminoacylation, catalytic enhancement (BFO) (fold over background); higher = more active; k-Seq, kA / k0A0; sequences stand for … in GGGAAUGGAUCCACAUCUACGAAUUC…UUCACUGCAGACUUGACGAAGCUG
Summary of the method: as §1

biotinyl-Val-oxazolone = assay: self-aminoacylation, catalytic enhancement (BVO) (fold over background); higher = more active; k-Seq, kA / k0A0; sequences stand for … in GGGAAUGGAUCCACAUCUACGAAUUC…UUCACUGCAGACUUGACGAAGCUG
Summary of the method: as §1

biotinyl-Leu-oxazolone = assay: self-aminoacylation, catalytic enhancement (BLO) (fold over background); higher = more active; k-Seq, kA / k0A0; sequences stand for … in GGGAAUGGAUCCACAUCUACGAAUUC…UUCACUGCAGACUUGACGAAGCUG
Summary of the method: as §1

biotinyl-Ile-oxazolone = assay: self-aminoacylation, catalytic enhancement (BIO) (fold over background); higher = more active; k-Seq, kA / k0A0; sequences stand for … in GGGAAUGGAUCCACAUCUACGAAUUC…UUCACUGCAGACUUGACGAAGCUG
Summary of the method: as §1

Row | Sequence | self-aminoacylation (biotinyl-Met-oxazolone) | self-aminoacylation (biotinyl-Trp-oxazolone) | self-aminoacylation (biotinyl-Phe-oxazolone) | self-aminoacylation (biotinyl-Val-oxazolone) | self-aminoacylation (biotinyl-Leu-oxazolone) | self-aminoacylation (biotinyl-Ile-oxazolone)
1 | AUUCACCUAGGUCAUUGGGUU [Fam2.2 aminoacylation ribozyme variant] | 1.34 | 1.52 | 5.73 | 1.19 | 1.15 | 1.23
2 | CUACUUCAAACAAUCGGCCUA [Fam1A.1 aminoacylation ribozyme variant] | 1.39 | 1.43 | 2.51 | 1.16 | 1.25 | 1.48
3 | AAGUUUGUUAACAGUCGCAAG [Fam3.1 aminoacylation ribozyme variant] | 0.806 | 0.988 | 1.11 | 0.996 | 1.03 | 1.09
4 | ACUCACCGAGGUCAUCGGGUG [Fam2.2 aminoacylation ribozyme variant] | 6.05 | 8.16 | 41.6 | 5.07 | 7.63 | 4.34
5 | GCACACUUAAAGCAAUCGGUC [Fam1B.1 aminoacylation ribozyme variant] | 1.06 | 1.49 | 1.1 | 1.18 | 1.15 | 1.25
6 | AUUACCCUGGUCACCGUGUGA [Fam2.1 aminoacylation ribozyme variant] | 3.88 | 5.51 | 21.1 | 2.06 | 3.95 | 1.98
7 | CCGCACUUCAAGCAAUCGGUG [Fam1B.1 aminoacylation ribozyme variant] | 7.36 | 8.54 | 55.1 | 5.59 | 10.3 | 5.07
8 | AACUUUGCUAAUAGUCGCAAA [Fam3.1 aminoacylation ribozyme variant] | 3.32 | 2.36 | 13.6 | 2.31 | 3.39 | 2.8
9 | AAGUUUGCUAAAAAUCGCAAG [Fam3.1 aminoacylation ribozyme variant] | 0.925 | 0.986 | 0.949 | 0.721 | 0.891 | 1.09
10 | CCAGACUUUAAGCAAUCGGUC [Fam1B.1 aminoacylation ribozyme variant] | 0.874 | 0.821 | 1.04 | 0.922 | 0.94 | 1.11
11 | CAACUUCUAACAAUCGGUCUG [Fam1A.1 aminoacylation ribozyme variant] | 0.722 | 1.05 | 1.44 | 0.917 | 0.743 | 0.904
12 | CUUCACCUAGGACAUCGGGUG [Fam2.2 aminoacylation ribozyme variant] | 3.03 | 3.31 | 14.1 | 2.68 | 3.53 | 2.34
13 | AGUACCCAGGUCAUCGAGUGA [Fam2.1 aminoacylation ribozyme variant] | 5.45 | 6.61 | 16.6 | 3.2 | 5.05 | 3.36
